In patent publication US20250019450A1 (DIAGONAL THERAPEUTICS, published 2025):
Changes are numbered by the printed parent chain. Blank lines part the entries; values can stand above or below the binder they belong to.

Assays:
[1] = molecular target: human IL-12 receptor (IL-12Rβ1 and IL-12Rβ2) on HEK-Blue IL-12 cells (human, UniProt P42701 24-662; Q99665 24-862); assay: cell-based or functional assay
[2] = molecular target: T1, human IL-12Rβ1-his (Acro Biosystems), biotinylated (human, UniProt P42701 24-545, biotinylated); assay: ELISA, periplasmic extract
T1 construct: bought; captured on Neutravidin in the ELISA; also called Bio-huIL-12Rβ1-His

[3] = molecular target: T2, human IL-12RB1 with C-terminal FLAG tag, transiently expressed on HEK-293T cells (human, UniProt P42701 24-662); assay: FACS, periplasmic extract, HEK-293T
T2 construct: whole, on cells

[4] = molecular target: T3, cyno IL-12RB1 with C-terminal FLAG tag, transiently expressed on HEK-293T cells (cyno, UniProt A0A2K5VWV1 24-662); assay: FACS, periplasmic extract, HEK-293T
T3 construct: whole, on cells

Sequence of human IL-12 receptor (IL-12Rβ1 and IL-12Rβ2) on HEK-Blue IL-12 cells (Q99665 24-862, chain 2 of 2, other chains not shown): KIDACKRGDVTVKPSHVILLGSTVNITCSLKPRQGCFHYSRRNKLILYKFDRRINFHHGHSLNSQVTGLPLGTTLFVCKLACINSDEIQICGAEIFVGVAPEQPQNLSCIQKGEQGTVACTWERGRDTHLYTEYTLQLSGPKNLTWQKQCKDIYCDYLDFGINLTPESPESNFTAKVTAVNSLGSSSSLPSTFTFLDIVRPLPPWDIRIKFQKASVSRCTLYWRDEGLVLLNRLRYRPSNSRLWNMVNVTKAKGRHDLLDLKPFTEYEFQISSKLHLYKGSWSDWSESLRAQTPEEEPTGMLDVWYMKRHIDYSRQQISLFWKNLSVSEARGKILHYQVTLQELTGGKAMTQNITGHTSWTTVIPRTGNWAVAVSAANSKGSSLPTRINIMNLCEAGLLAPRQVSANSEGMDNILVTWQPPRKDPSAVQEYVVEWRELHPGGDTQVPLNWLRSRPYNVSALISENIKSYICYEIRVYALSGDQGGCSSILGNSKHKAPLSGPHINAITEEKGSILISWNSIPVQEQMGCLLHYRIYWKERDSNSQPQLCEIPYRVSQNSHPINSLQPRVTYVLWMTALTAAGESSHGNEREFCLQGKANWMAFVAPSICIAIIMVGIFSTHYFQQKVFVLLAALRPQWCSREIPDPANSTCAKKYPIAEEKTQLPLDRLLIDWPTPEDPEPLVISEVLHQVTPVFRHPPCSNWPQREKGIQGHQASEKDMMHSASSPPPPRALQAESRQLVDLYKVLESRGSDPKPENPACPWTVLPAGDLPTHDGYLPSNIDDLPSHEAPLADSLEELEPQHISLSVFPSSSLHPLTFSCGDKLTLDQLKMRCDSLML

EC50 [1]: > 100 nM | Max Absorbance [1]: 0.47
B1: DGL464 (bispecific antibody, V domains shown)
V domain 1: QVQLVESGGGLVQAGGSLRLSCAASGRAFSRYSMGWFRQAPGKEREFVAANYWSNGWTDYADTVKGRFSISRDNAKNTVYLQMNSLKPEDTAVYYCAGRSSSIPSADVVGYDYWGQGTQVTVEP
V domain 2: QVQLVESGGGLVQPGGSLRLSCAASGFTFSNYAMSWVRQAPGKGLEWVSAINSDGTSTSYADSVKGQFTISRDNAKNTLYLQMNSLKPEDTAVYYCTKWEGDTDSDYKFKDYWGQGTQVTVEP

EC50 [1]: > 100 nM | Max Absorbance [1]: 0.42
B2: DGL533 (bispecific antibody, V domains shown)
V domain 1: EVQLVESGGGLVQPGGSLTLSCTASGFRFSDRSMGWYRQAPGKQRELVAAITVGGSTNYADSVKGRFTISRDNAKNTVYLQMNSLKPEDTALYYCNRRYPPDDYWGQGTQVTVEP
V domain 2: QVQLVESGGGLVQAGGSLRLSCAASGRTFSSYAMGWFRQAPGKEREFVSAISWSGLSTYYVESVQGRFTISRDNAKNTVYLQMNSLKPEDTAVYYCAASRIYTNYVARSYEYDDWGQGTQVTVEP

Max Absorbance [1]: 0.37
B3: DGL541 (bispecific antibody, V domains shown)
V domain 1: QVQLVESGGGLVQAGGSLRLSCAASGRTFRTYAMGWFRQAPGKDREVVGIAAWKVASTYYVDYGDSVRGRFTISRDDAKSTVYLQMNNLMPEDTAVYYCAAGAFRTDWRSYAYWGQGTQVTVEP
V domain 2: B2 V domain 2

EC50 [1]: > 100 nM | Max Absorbance [1]: 0.41
B4: DGL504 (bispecific antibody, V domains shown)
V domain 1: EVQLVESGGGLVQAGGSLRLSCAASGLTFRNYAMAWFRQAPGKEREFVAGITWGGGLTHYVDSVKGRFTISRDNGKNTVYLQMNSLKSEDTAVYYCAGKTQGSTWYHLTPDGYDYWGQGTQVTVEP
V domain 2: B2 V domain 2

EC50 [1]: 3.2e-09 M (implied) | Max Absorbance [1]: 0.37
B5: DGL585 (bispecific antibody, V domains shown)
V domain 1: QVQLVESGGGLVQAGGSLRLSCAASGRTFSSYVMGWFRQAPGQEREFVAAIMRNGIMTYYADSVKGRFTISRDNAKNTVYLQMNTLKPDDTAVYYCAAASRVGVSISQSSSYTSWGQGTQVTVEP
V domain 2: QVQLVESGGGLVRPGGSLRLSCAASGFTFSSNGMHWFRQAPGKGLEWVSSIGSGGTSIYYADSVKGRFTISRDNAKNTLYLQMNSLKSDDTAVYYCSKEVTGATRGQGTQVTVEP

EC50 [1]: 4e-11 M (implied) | Max Absorbance [1]: 0.45
B6: DGL441 (bispecific antibody, human IgG1, lambda)
heavy 1: not shown
heavy 2: EVQLVESGGGLVQPGGSLRLSCAASGFTFSTYDMHWVRQATGKGLEWVSLIDTAGDTYYPDSVKGRFTISRENAKNSLYLQMNSLRAGDTAVYYCAREGWGYFDYWGQGALVTVSSASTKGPSVFPLAPSSKSTSGGTAALGCLVKDYFPEPVTVSWNSGALTSGVHTFPAVLQSSGLYSLSSVVTVPSSSLGTQTYICNVNHKPSNTKVDKKVEPKSCDKTHTCPPCPAPEAAGAPSVFLFPPKPKDTLMISRTPEVTCVVVDVSHEDPEVKFNWYVDGVEVHNAKTKPREEQYNSTYRVVSVLTVLHQDWLNGKEYKCKVSNKALPAPIEKTISKAKGQPREPQVCTLPPSRDELTKNQVSLSCAVKGFYPSDIAVEWESNGQPENNYKTTPPVLDSDGSFFLVSKLTVDKSRWQQGNVFSCSVMHEALHNRFTQKSLSLSPG
light: QSALTQPPSVSGSPGQSVTISCTGTSSDVGSYNRVSWYQQPPGTAPKLMIYEVSNRPSGVPDRFSGSKSGNTASLTISGLQAEDEADYYCSLYTGSSTVVFGGGTKVTVLGQPKAAPSVTLFPPSSEELQANKATLVCLISDFYPGAVTVAWKADSSPVKAGVETTTPSKQSNNKYAASSYLSLTPEQWKSHRSYSCQVTHEGSTVEKTVAPTECS

EC50 [1]: 1e-09 M (implied) | Max Absorbance [1]: 0.39
B7: DGL448 (bispecific antibody, human IgG1, lambda)
heavy 1: not shown
heavy 2: B6 heavy 2
light: B6 light

EC50 [1]: > 100 nM | Max Absorbance [1]: 0.42
B8: DGL445 (bispecific antibody, human IgG1, lambda)
heavy 1: not shown
heavy 2: QVQLVQPGAEVKKPGASVKVSCKASGYTFTGYYMHWVRQAPGQGLEWMGWINPKSGGTNYAQKFQGRVTMTRDTSISTAYMELTRLRSDDTAVYYCARDQGYGDYVLKHWGQGTLVTVSSASTKGPSVFPLAPSSKSTSGGTAALGCLVKDYFPEPVTVSWNSGALTSGVHTFPAVLQSSGLYSLSSVVTVPSSSLGTQTYICNVNHKPSNTKVDKKVEPKSCDKTHTCPPCPAPEAAGAPSVFLFPPKPKDTLMISRTPEVTCVVVDVSHEDPEVKFNWYVDGVEVHNAKTKPREEQYNSTYRVVSVLTVLHQDWLNGKEYKCKVSNKALPAPIEKTISKAKGQPREPQVCTLPPSRDELTKNQVSLSCAVKGFYPSDIAVEWESNGQPENNYKTTPPVLDSDGSFFLVSKLTVDKSRWQQGNVFSCSVMHEALHNRFTQKSLSLSPG
light: SYVLTQPPSVSVAPGQTARITCGGDNIGSKSVHWYQQKPGQAPVPVVYDDSDRPSGIPERFSGSNSGNTATLTISRVEAGDEADYYCQVWDSSSDHVVFGGGTKLTVLGQPKAAPSVTLFPPSSEELQANKATLVCLISDFYPGAVTVAWKADSSPVKAGVETTTPSKQSNNKYAASSYLSLTPEQWKSHRSYSCQVTHEGSTVEKTVAPTECS

EC50 [1]: > 100 nM | Max Absorbance [1]: 0.47
B9: DGL454 (bispecific antibody, V domains shown)
V domain 1: QVQLQESGGALVQPGGSLRLSCVVSGFTSDYFAIGWFRQAPGKEREGVSCIGSSDGSTIYSDSVKGRFTISRDNAKNTVYLQMNSLKPEDTGVYYCALDRGRRTIIGYACYATMKYWGKGTPVTVEP
V domain 2: QVQLVESGGGLVQPGGSLRLSCAASGFTFEPYDMSWFRQAPGKGPEWVSAIDKGGGAGATYYADSVKGRFTISRDNAKKTLYLQMKSLKPEDTAVYYCAITAGPYSDSTPRVAYRGEGTQVTVEP

OD450 nm [2]: 0.479 | FOB [3]: 160 fold | FOB [4]: 121 fold
B10: VHH25B1 (VHH)
VHH: B9 V domain 1 with E126S, P127S

EC50 [1]: 4e-09 M (implied) | Max Absorbance [1]: 0.4
B11: DGL478 (bispecific antibody, V domains shown)
V domain 1: QVQLVESGGGLVQAGGSLRLSCAAPGRYAVGWFRQAPGKEYEFVAAITVSGGSKYYEDSVKGRFAISRDNAKNTVYLQMNSLKAEDTAVYYCAARTPKFGSGWYNRRGEYDYWGQGTQVTVEP
V domain 2: QVQLVESGGGLVQAGGSLRLSCAASGRIFSAYRMGWFRQAPGKEREFVAGITWRGQTTYYAASVKGRFTISKDNAKKTVYLQMNSLKPEETAVYYCAVETNGLGRWDRPSEYDYWGQGTQVTVEP

Max Absorbance [1]: 0.35
B12: DGL503 (bispecific antibody, V domains shown)
V domain 1: B4 V domain 1
V domain 2: B11 V domain 2

EC50 [1]: > 100 nM | Max Absorbance [1]: 0.4
B13: DGL552 (bispecific antibody, V domains shown)
V domain 1: QVQLVESGGGLVQAGGSLRLSCAASGRTFGTYAMGWFRQAPGKERDFVARISNSGAFTHYADSVKGRFTISRDNAKNTVYLHMNSLENGDTAAYYCVATRGTNSAYYTRSTMYEYWGQGTQVTVEP
V domain 2: B11 V domain 2

EC50 [1]: > 100 nM | Max Absorbance [1]: 0.43
B14: DGL575 (bispecific antibody, V domains shown)
V domain 1: QVQLVESGGGLVQAGGSLRLSCAASRSISSFNEMAWYRQAPGEQRELVATIVSTVGFTNYADSVKGRFTISRDNAKNTVYLQMNSLKAEDTAVYYCNARRISTDYWGQGTQVTVEP
V domain 2: QVQLQESGPGLVKPSQTLSLTCTVSGGSITTNYYYWSWIRQPPGKGLEWMGAIAYSGSTYYSPSLKSRTSISRDTSKNQFTLQLSSVTPEDTAVYYCASGINFYSNYPTLNEYDYWGQGTQVTVEP

Max Absorbance [1]: 0.36
B15: DGL579 (bispecific antibody, V domains shown)
V domain 1: B14 V domain 1
V domain 2: B2 V domain 2

EC50 [1]: > 100 nM | Max Absorbance [1]: 0.41
B16: DGL574 (bispecific antibody, V domains shown)
V domain 1: B14 V domain 1
V domain 2: QVQLVESGGGLVQAGGSLRLSCAASGRTFSRYRMGWFRQAPGKEREFVAAITKSGATTYDADSVKGRFTISRDNAKNTLYLQMNSLKPEDTAVYYCAASYHSNWWPKNADEYAYWGQGTQVTVEP
